Results reported in patent US20150104459A1 (published 2015).

Target: Hemagglutinin of influenza A/Solomon Islands/3/06 (H1N1) on whole virions (Influenza A virus A/Solomon …)
Assay: cell-based or functional assay

B1: TCN-522 (3212_I12) (antibody, V domains shown)
VH: QVQLQQWGAGLLKPSETLSLTCTVSGGSLTDYSWNWIRQPPGKGLEWIGDTLHNGYTNYNPSLRGRVSISIDTSKNQVSLRLTSVTAADTALYYCARGSGGYGGFDYFGKLRTWDFWGQGTLVTVSS
VL: DIQLTQSPSSLSASVGDRVTITCRASQGIRNDLGWYQQKPGNAPKRLIFGASSLQSGVPSRFSGSGSGTEFTLTISSLQPEDFATYYCLQHNSYPYTFGQGTKLEIK
  % Neutralization: 33%

B2: TCN-529 (5297_H01) (antibody, V domains shown)
VH: QITLRESGPTLVKPTQTLTLTCTFSGFSLSTNGVNVGWIRQPPGKALEWLALIYWDDDKRYSPSLKRRLTITKDTSKNQVVLTLTNMDPVDTATYYCAHRPDFYGDFEYWGPGTLVTVSS
VL: QSALTQPASVSGSPGQSITISCTGSSSDIGGYNYVSWYQQHPGKAPKLMIYDVNNRPSGVSNRFSGSKSGNTASLTISGLQTDDEADYYCGSYTGSPHYVFGTGTKVTVL
  % Neutralization: 0%

B3: TCN-527 (5086_C06) (antibody, V domains shown)
VH: QVQLQESGPGLVKPSETLSLNCAVSGGSISNYYWSWIRQPPGKGLEWIGYISYNGRPKYNPSLTSRVTISVDTSKDQFSLELRSVTAADTALYYCARETRFGELLSPYDAFEIWGQGTMVTVSS
VL: DIQMTQSPSSLSASVGDRVTMTCRASQNIRSYLNWYQQRPGTAPKLLIYAASTLHSGVPSRFSGGGSGTDFTLTINNLQPEDFASYYCQQSYDNPQTFGQGTKVEIK
  % Neutralization: 12%

B4: TCN-543 (5081_G23) (antibody, V domains shown)
VH: QVHLVQSGAEVRKPGDSVKVSCKTSGYTFSTYPVAWVRQVPGQGLEWMGWISTYNGNTNFAQNFQGRVTLTTDTTTNTAYMEVRSLKFDDTAVYYCARVEGSYRDFWNNQNRFDPWGQGTLVTVSS
VL: SYVLTQPPSVSVAPGQTARISCGGSNIGGKSVHWYQQKPGQAPVLVVYDDSGRPSGIPERFSGSNSGDTATLTISRVEAGDEADYFCQVWDNFGGVFGTGTKVTVL
  % Neutralization: 100%

B5: TCN-534 (5249_B02) (antibody, V domains shown)
VH: QVQLVQSGAEVKKPGSSVKVSCRESGGTFNGYTITWVRQAPGQGLEWMGGIIPMMGTVNYAQKLQGRVTITTDYFTKTAYMDLNNLRSEDTAMYYCVKIRYTGQQLLWGQGTLVTVSS
VL: DIQMTQSPSTLSASIGDRVTITCRASQSIASWLAWYQQKPGKAPKLLIYEAVNLESGVPSRFSGSGSGTDFTLTISSLQPDDFATYFCQHYGTISQTFGGGTKVEIK
  % Neutralization: 86%

B6: TCN-539 (5056_A08) (antibody, V domains shown)
VH: QVQLVESGGGVVQPGRSLRLSCAASEITFITYAMHWVRQAPGKGLEWVALISDDGSNKFYADSVKGRFTISRDNSKNTLYLQMNSLRAEDTAAYYCAREGVYFDSGTYRGYFDYWGQETLVTVSS
VL: EIVLTQSPATLSLSPGERATLSCRASQSVSSYLAWYQQKPGQAPRLLIYDASNRATGIPARFSGSGSGTDFTLTISSLEPEDFAVYYCQQRSHWPPITFGQGTRLEIK
  % Neutralization: 97%

B7: TCN-545 (5082_I15) (antibody, V domains shown)
VH: QVQLQQWGAGLLKPSETLSLSCAVFGGSFSDYYWTWIRQPPGKGLEWIGEIKHSGRTNYNPSLESRVTISVDTSKNQFSLKLSSVTAADTAIYYCARGTDPDTEGYCRSGSCSAFDFWGQGTLVTVSS
VL: EIVLTQSPGTLSLSPGERATLSCRASHFVNYRSLAWYQQTPGQVPRLLIYGASTRATGIPDRFSGSGSGTDFTLTISRLEPEDFAVYFCQQYGGSPRYTFGQGTRLEIK
  % Neutralization: 98%

B8: TCN-530 (5248_H10a) (antibody, V domains shown)
VH: QVQLVQSGAEVRKPGSSVKVSCKASGGPFMSYAIGWVRQAPGQGLEWMGGINPVFGRPHYAQKFQGRVTIATDDSTKTSYMELSSLTSEDTGMYYCASRYSRSSPGTFESWGQGTLVTVSS
VL: EIVMTQFPATLSVSPGERVTLSCRASQSVSNNLAWYQQKPGQPPRLLIYDASTRATGVPAKFSGTGSGTEFTLSISSLQSEDFAVYYCQQYHNWPPSYSFGLGTKLEIK
  % Neutralization: 64%

B9: TCN-532 (5262_H18) (antibody, V domains shown)
VH: QVQLQESGPGLVKPSETLSLTCTVSGGSVSSETYYWSWIRQPPGKGLEWIGYIYYIGNTDYRPSLKSRVTISLDTSKNQFSLKLSSVTAADTAVYYCARGAYYDSSGYPAFYIWGQGTMVTVSS
VL: QSVLTQPPSVSGAPGQRVTISCTGSSSNIGSDYDVHWYKQLPGTAPKLLIFGNSNRPSGVPDRFSGSKSGTSASLAITGLQAEDEADYYCQSYDSSLSGFHVFGSGTKVTVL
  % Neutralization: 11%

B10: TCN-540 (5060_F05) (antibody, V domains shown)
VH: QVQLVQSGGGVVQPGRSLRLSCAASGFTFSSYAMHWVRQAPGKGLEWVAIISYDGNDQYYTDSVKGRFTISRDSSKVYLQMHRLRPEDTAVYYCAKEFETSGYFHGSFDYWGQGILVTVSS
VL: QSALTQPASVSGSPGQSITISCTGTSSDVGGYNYVSWYQQHPGKAPKLLIYEVTNWPSGVSNRFSGSKSGNTASLTISGLQAEDEADYYCSSYAGSSTWVFGGGTRVTVL
  % Neutralization: 100%

B11: TCN-538 (3206_O17) (antibody, V domains shown)
VH: QITLKESGPTLVKPTQTLTLTCVFSGFSLSITGVRVGWIRQPPGKALEWLALISWDDEKHYSPSLQSRLTITKDTSKNQVVLTMTNLDPVDTATYYCARSTDRGHVLRYFGWMLPGDAFDVWGQGTMVTVSS
VL: DIVMTQSPDFLPVSLGERATINCKSSQRVLYSSNNKNYLAWYQLKPGQPPKLIIYWASTRESGVPDRFSGSGSGTEFTLTISSLQAEDVAVYYCQQYYSRPYTFGQGTKLEIK
  % Neutralization: 35%

B12: TCN-526 (5084_C17) (antibody, V domains shown)
VH: EVLMVESGGGLVQPGGSVRLSCVASGFSFSSHWMTWVRQAPGKGLEWVANIEDDGGDKYYVDSVKGRFIISRDNAKNSVYLQMNSLRAEDTAVYFCARGSGSSDRSDYDPHYYYYLDVWGKGATVTVSS
VL: DIQLTQSPSSLSASVGDRVTITCRASQSISRYLNWYQQKPGKAPKLLLFAASTLLDGVPSRFSGSGSGTDFTLTISSLQPEDFATYYCQRNHSPSWTFGQGTRVEIK
  % Neutralization: 0%

B13: TCN-537 (3194_D21) (antibody, V domains shown)
VH: QVQLQQWGSGLLKPSETLSLTCAVYGGSFRDDYWTWIRQPPGKGLEWIGEINHSGRTNYNPSLKSRVTISVDTSLKQFSLKVISVTAADTAVYYCARGTSHVSRYFDWLPPTNWFDPWGQGTQVTVSS
VL: DIVLTQSPGTLSLSPGERATLSCRASQSVSSSYLAWYQQKPGQAPRLVMYGAATRATGIPDRFSGSGSGPDFTLTISRLEPEDFAMYYCQQYGNSPITFGQGTRLEIK
  % Neutralization: 89%

B14: TCN-528 (5087_P17) (antibody, V domains shown)
VH: QVQLVQSGSEVKKPGASVKVSCKASGYTFTNYDINWIRQAPGQGLEWMGWINPNSGTTGSAQRFQGRVTITVDTSITTVYMELSSLRSDDTAIYYCARGRELLRLQHFLTDSQSERRDCFDPWGQGTLVTVSS
VL: DIQMTQSPSSLSASVGDRVTITCRANQDIGIYLNWYQQNPGKVPKLLLHGASSLQGGVPSRFSASGSGTDFTLTIHSLQPEDLATYYCQQSRRLPYTFGQGTRVELK
  % Neutralization: 0%

B15: TCN-546 (5089_L08) (antibody, V domains shown)
VH: QVQLQQWGAGLLKPSETLSLTCGVYGGSLSDYYWSWIRQPPGKGLEWIGEINHSGGTNYNPSLKRRVTISVDTSKKQFSLKMNSVTAADTAVYYCARGTDPDTEVYCRAGNCAAFDFWGQGTLVTVSS
VL: EIVLTQSPGTLSLSPGERATLSCRASHFVIGRAVAWYQQKPGQAPRLLIYGASSRATGIPDRFSGSGSGTDFTLTISRLETEDFAVFYCQHYGSSPRYAFGQGTKLEIK
  % Neutralization: 0%

B16: TCN-544 (5082_A19) (antibody, V domains shown)
VH: QVQLQESGPGLVKPSETLSLTCTVSRGSIGHYFWSWIRQPPGKGLEWIGYISYSGSTKYNPSLRSRVTISVDTSKNQFSLNLNSVTATDTALYYCAREDYDILTGAGPGMEVWGQGTTVTVSS
VL: QSMLTQPPSASGTPGQRVTISCSGSSSNIGSNTVNWFKHLPGTAPKLLIYRNDLRPSGVPDRFSGSKSGTSASLAISGLQSEDEADYYCATWDDSLNGFYVFGTGTKVTVL
  % Neutralization: 95%

B17: TCN-535 (5246_P19) (antibody, V domains shown)
VH: QVQLVQSGSEVKKPGTSVKVSCTASGSVFTNYGISWVRQAPGQGLEWMGGIIPLFGAAKYAQKFQGRVTITADESTKTVYMELSRLTSKDTAIYFCAKAPRVYEYYFDQWGQGTPVTVSS
VL: EIVLTQSPGTLSLSPGERATLSCRASQSVSSSQLAWYQQKPGQAPRLIIYGASTRATGIPDRFSGSGSGTDFTLTIGRLEPEDFAVFFCQQYSTSPPTFGQGTKVDFK
  % Neutralization: 82%

B18: TCN-533 (5256_A17) (antibody, V domains shown)
VH: QVQLVQSGADVKKPGSSVTVSCKASGGSFSNYGINWVRQAPGQGLEWMGGIIPLINAPNYAPKFQGRVTITADMFSNIVSLQLTSLRTDDTAVYYCARRKMTTAIDYWGQGTLVTVSS
VL: QPVLSQPPSASASLGASVTLTCTLSSGFDNYQVAWYQQRPGKGPRFVMRVGNGGNVASKGDGIPDRFSVSGSGLNRYLTIKNIQEDDESDYYCGADHGSGNNFVSPYVFGGGTKLTVL
  % Neutralization: 56%

B19: TCN-542 (5079_A16) (antibody, V domains shown)
VH: QVQLQESGPGLVKPSQTLSLTCTVSGGSISSGNYYWNWVRQHPGKGLEWIGYIYYRGSTFYNPSLKSRVTISIDTSKNQFSLRLSSVTAADTAVYYCAKDTRSSLDNYQYGMDVWGQGTTVTVSS
VL: QTVVTQEPSLTVSPGGTVTLTCASSTGAVTSSYFPNWFQQKPGQAPRPLIYSTTIRHSWTPARFSGSLLGGKAALTLSGVQPEDEADYYCLLYSGGDPVAFGGGTKLTVL
  % Neutralization: 98%

B20: TCN-531 (5091_H13) (antibody, V domains shown)
VH: EVQLVESGGDLVQPGRSLKLSCTGSGFTFGDYGVTWVRQAPGKGLEWVGFIRTRPWGGTADTAASVKGRFTISRDDSKSLAYLQMNSLKTEDTAVYYCCRDAPPNVEVASMTNWYFDLWGRGTLVTVSS
VL: DIQLTQSPSSLSASVGDRVTITCRASQGILNCLAWYQQKPGKVPNLLMYAASTLQSGVPSRFSGSGFGTDFTLTISSLQPEDVATYYCQTYGGVSTFGGGTKVEIR
  % Neutralization: 65%

B21: TCN-536 (5095_N01) (antibody, V domains shown)
VH: QVQLQQWGAGLLKPSETLSLTCAVYGGSFSVSGYYWSWIRQPPGRGLEWIGEISHGGSTNYNPSLKSRVTISVDTTKNQFSLRLSSVTAADTAVYYCARGTDPDTEVYCRVGNCAAFDYWGQGSLVTVSS
VL: EIILAQSPGTLSLSPGERATLSCRASQFVSTRSLAWYQQRPGQAPRLLIYGASSRATGIPDRFSGSGSGTDFTLTISRLEPEDFAVYYCQHYGYSPRYAFGQGSKVEIK
  % Neutralization: 75%
